Each block holds one binder with its values, some of them ahead of it.
Key:
hROR2 [1] = biological target: T1, hROR2 (human, UniProt Q01974); experiment: flow cytometry on T47D cells (ROR2 positive, ROR1 negative); APC goat anti-human Fcγ
T1 construct: full length, on the cell surface; also called 63-12 / hROR2; ROR2 on T47D cells
Method: (§1) Flow cytometry: Cells were stained using standard flow cytometry methodology. Briefly, for purified anti-ROR1 Fab (FIG. 3), 0.1-1×10⁶ cells were stained with 1000 ng/100 μL of Fab on ice for 1 h. After washing twice with ice-cold flow cytometry buffer (PBS containing 1% (v/v) BSA, 0.1% sodium azide and 1 mM EDTA), the cells were incubated with a 1:1000 dilution of a mouse anti-His tag mAb conjugated to Alexa Fluor 488 (Qiagen) in 100 μL flow cytometry buffer on ice for 30 min. For purified anti-ROR1 IgG1 (FIG. 8), 0.1-1×10⁶ cells were blocked by 4% goat serum for 15 min at room temperature and then incubated with 100 ng/100 μL of IgG on ice for 1 h. After washing twice with ice-cold flow cytometry buffer, cells were stained with a 1:500 dilution of goat anti-human IgG, Fcγ pAbs conjugated to APC (Jackson ImmunoResearch) in 100 μL flow cytometry buffer on ice for 30 min. For commercial goat anti human ROR1 polyclonal antibody (FIG. 8), 0.1-1×10⁶ cells were stained with 200 ng/100 μL of Ab on ice for 1 h. […] Finally, 4′,6-diamidino-2-phenylindole (DAPI) was added to a final concentration of 100 ng/mL to exclude dead cells from the analysis. Cells were analyzed using a FACSCalibur instrument (BD Biosciences) and FlowJo analytical software (Tree Star, Ashland, Oreg.).

[2] = biological target: T2, human ROR1, full length, on cells (human, UniProt Q01973 30-937); experiment: cell-based or functional assay
[3] = biological target: T2, human ROR1, full length, on cells; experiment: cell-based or functional assay; remark: listed apart in the source
[4] = biological target: T2, human ROR1, full length, on cells; experiment: cell-based or functional assay; remark: listed apart in the source
[5] = biological target: T2, human ROR1, full length, on cells; experiment: cell-based or functional assay; remark: listed apart in the source
[6] = biological target: T2, human ROR1, full length, on cells; experiment: cell-based or functional assay; remark: listed apart in the source
[7] = biological target: T2, human ROR1, full length, on cells; experiment: cell-based or functional assay; remark: listed apart in the source
[8] = biological target: T2, human ROR1, full length, on cells; experiment: cell-based or functional assay; remark: listed apart in the source
Fr + Ki = biological target: T3, Fr + Ki (human, UniProt Q01973); experiment: ELISA on directly coated hFc fusion proteins of hROR1 domains; anti-His-HRP; A405
T3 construct: Frizzled and Kringle domains of the extracellular domain; also called hFc-hROR1-Fr-Ki
Method: (§2) ELISA: For ELISA (FIG. 2), each well of a 96-well Costar 3690 plate (Corning, Corning, N.Y.) was coated with 100 ng anti-human IgG1 Fc in 25 μL coating buffer (0.1 M Na₂CO₃, 0.1 M NaHCO₃, pH 9.6) for 1 h at 37° C. After blocking with 150 μL 3% (w/v) BSA/TBS for 1 h at 37° C., hFc-hROR1 or hFc-mROR1 was captured following incubation at 100 ng/50 μL for 1 h at 37° C. Then 100 ng/50 μL of Fab was applied in each well at 37° C. 2 h later, 50 μL of a 1:1000 dilution of a mouse anti-His tag mAb conjugated to horse radish peroxidase (HRP) (R&D Systems, Minneapolis, Minn.) in 1% (w/v) BSA/TBS was used to detect the Fab. To determine the epitopes (FIG. 4), hFc fusion proteins containing different domains of hROR1 were coated directly, followed by incubation with Fab before detection by mouse anti-His tag mAb conjugated to HRP. Washing with PBS was repeated and colorimetric detection was performed using 2,2′-azino-bis(3-ethylbenzthiazoline)-6-sulfonic acid (Roche) as substrate according to the manufacturer's directions. The absorbance was measured at 405 nm using a SpectraMax M5 microplate reader (Molecular Devices; Sunnyvale, Calif.) and SoftMax Pro software (Molecular Devices).

Ig = biological target: T4, Ig (human, UniProt Q01973); experiment: as above
T4 construct: Ig domain of the extracellular domain; also called hFc-hROR1-Ig
Method: as §2

Kr = biological target: T5, Kr (human, UniProt Q01973); experiment: as above
T5 construct: Kringle domain of the extracellular domain; also called hFc-hROR1-Kr
Method: as §2

Fr = biological target: T6, Fr; experiment: as above
T6 construct: also called hFc-hROR1-Fr
Method: as §2

[9] = biological target: T7, hFc-hROR1 (extracellular domain of human ROR1 fused to the Fc domain of human IgG1) (human, UniProt Q01973 30-406); experiment: SPR (Biacore X100); hFc-hROR1 captured by anti-human Fcγ antibody on CM5; Fab as analyte; 1:1 Langmuir fit
T7 construct: extracellular domain; also called hFc-ROR1; not shown: Fc domain of human IgG1
Method: (A) Shown are Biacore X100 sensorgrams obtained for the binding of each Fab to hFc-hROR1 captured by anti-human Fcγ antibody immobilized on CM5 chip after instantaneous background depletion. Fabs were injected at five different concentrations with the highest concentration indicated in table (B), one of the five concentrations was tested in duplicates. The equilibrium dissociation constant (Kd) was calculated from koff/kₒₙ (kₒₙ, association rate constant; koff, dissociation rate constant).
Surface plasmon resonance: Surface plasmon resonance for the measurement of the affinities of all Fabs to hFc-hROR1 and for epitope mapping studies were performed on a Biacore X100 instrument using Biacore reagents and software (GE Healthcare, Piscataway, N.J.). Anti-Human IgG (Fc) antibody was immobilized on a CM5 sensor chip following the instruction of Human Antibody Capture Kit (GE Healthcare, Piscataway, N.J.). The sensor chip included an empty flow cell for instantaneous background depletion. All binding assays used 1×HBS-EP+ running buffer (10 mM HEPES, 150 mM NaCl, 3 mM EDTA (pH 7.4), and 0.05% (v/v) Surfactant P20) and a flow rate of […]. […] The sensor chip was regenerated with […] from the Human Antibody Capture Kit without any loss of binding capacity. Calculation of association (kₒₙ) and dissociation (koff) rate constants was based on a 1:1 Langmuir binding model. The equilibrium dissociation constant (Kd) was calculated from koff/kₒₙ. For epitope mapping studies, each Fab was prepared at 500 nM alone in 1×HBS-EP+ running buffer and then injected in order as indicated in FIG. 5.

[10] = biological target: T8, hFc-mROR1 (extracellular domain of mouse ROR1 fused to the Fc domain of human IgG1) (human; mouse, UniProt Q9Z139 30-406); experiment: ELISA; hFc fusion captured by coated anti-human IgG1 Fc; Fab 100 ng/50 µL; anti-His-HRP; A405
T8 construct: extracellular domain; not shown: Fc domain of human IgG1
Method: (§3) The binding of each chimeric rabbit/human Fab to hROR1 and mROR1 fused with human IgG1 Fc (hFc-hROR1 and hFc-mROR1) was analyzed by ELISA. hFc-ROR1 or hFc-mROR1 were captured by anti-human IgG1 Fc antibody immobilized on plate and then incubated with hROR1 specific Fabs comprising a His-tag via detection with mouse anti-His tag.
as §2, with “Washing with PBS was repeated and colorimetric detection was performed using 2,2′-azino-bis(3-ethylbenzthiazoline)-6-sulfonic acid (Roche) as substrate according to the manufacturer's directions.” left out

hROR2 [11] = biological target: T1, hROR2; experiment: flow cytometry on 63-12 / hROR2 cells; anti-His Alexa Fluor 488
Method: as §1

[12] = biological target: T9, hFc-hROR2 (extracellular domain of human ROR2 fused to the Fc domain of human IgG1) (human, UniProt Q01974 34-403); experiment: ELISA as for hFc-hROR1; third bar series, keyed 'hFc-hROR1' a second time on the sheet, taken as hFc-hROR2 by legend paragraph 27
T9 construct: extracellular domain; not shown: Fc domain of human IgG1
Method: as §3, §2

[13] = biological target: T2, human ROR1, full length, on cells; experiment: flow cytometry on human cancer cell lines; 2A2 2 µg/mL; anti-human IgG (Fcγ) PE
Method: 5×10⁵ of each cell type were added per well to 96-well plates. Plates were centrifuged (3 min, 1300 rpm) with re-suspension in buffer (PBS supplemented with 2% (v/v) of FCS). […] Plates were then incubated on ice for 30 min and washed with 200 μL of buffer prior to resuspension in 200 μL of buffer supplemented with anti-human IgG antibody (Fc gamma-specific) PE (eBioscience 12-4998-82) at a 1:250 dilution. Following 30 min incubation on ice and one washing, cells were analyzed using a FACSCalibur instrument (BD Biosciences) and data was analyzed using FlowJo analytical software (Tree Star, Ashland, Oreg.).

T1 sequence (Q01974 34-943 limits assumed): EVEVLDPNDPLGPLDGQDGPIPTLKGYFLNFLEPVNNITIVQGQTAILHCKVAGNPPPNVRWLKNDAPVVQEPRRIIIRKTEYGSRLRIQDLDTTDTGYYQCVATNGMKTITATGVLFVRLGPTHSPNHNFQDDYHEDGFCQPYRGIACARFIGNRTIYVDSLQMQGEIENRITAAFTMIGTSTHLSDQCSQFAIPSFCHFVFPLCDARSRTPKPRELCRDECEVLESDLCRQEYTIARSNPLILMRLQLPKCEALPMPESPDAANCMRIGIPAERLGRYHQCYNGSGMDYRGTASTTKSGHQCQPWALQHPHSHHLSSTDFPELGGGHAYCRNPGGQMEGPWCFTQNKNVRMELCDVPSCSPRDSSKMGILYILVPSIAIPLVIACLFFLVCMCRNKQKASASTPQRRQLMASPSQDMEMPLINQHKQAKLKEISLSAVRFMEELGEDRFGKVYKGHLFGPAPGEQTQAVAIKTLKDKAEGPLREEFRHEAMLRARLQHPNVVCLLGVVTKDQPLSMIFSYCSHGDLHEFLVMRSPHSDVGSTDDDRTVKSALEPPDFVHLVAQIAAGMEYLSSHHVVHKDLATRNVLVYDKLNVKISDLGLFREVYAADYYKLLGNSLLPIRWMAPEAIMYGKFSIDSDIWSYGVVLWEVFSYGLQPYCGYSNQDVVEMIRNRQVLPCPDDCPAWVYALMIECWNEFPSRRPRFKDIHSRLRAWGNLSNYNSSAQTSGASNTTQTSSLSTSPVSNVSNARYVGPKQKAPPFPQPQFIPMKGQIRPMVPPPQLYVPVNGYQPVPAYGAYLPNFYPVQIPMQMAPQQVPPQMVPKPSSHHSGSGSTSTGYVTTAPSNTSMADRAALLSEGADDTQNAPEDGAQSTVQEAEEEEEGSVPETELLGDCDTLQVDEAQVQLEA
T2 sequence (Q01973 30-937): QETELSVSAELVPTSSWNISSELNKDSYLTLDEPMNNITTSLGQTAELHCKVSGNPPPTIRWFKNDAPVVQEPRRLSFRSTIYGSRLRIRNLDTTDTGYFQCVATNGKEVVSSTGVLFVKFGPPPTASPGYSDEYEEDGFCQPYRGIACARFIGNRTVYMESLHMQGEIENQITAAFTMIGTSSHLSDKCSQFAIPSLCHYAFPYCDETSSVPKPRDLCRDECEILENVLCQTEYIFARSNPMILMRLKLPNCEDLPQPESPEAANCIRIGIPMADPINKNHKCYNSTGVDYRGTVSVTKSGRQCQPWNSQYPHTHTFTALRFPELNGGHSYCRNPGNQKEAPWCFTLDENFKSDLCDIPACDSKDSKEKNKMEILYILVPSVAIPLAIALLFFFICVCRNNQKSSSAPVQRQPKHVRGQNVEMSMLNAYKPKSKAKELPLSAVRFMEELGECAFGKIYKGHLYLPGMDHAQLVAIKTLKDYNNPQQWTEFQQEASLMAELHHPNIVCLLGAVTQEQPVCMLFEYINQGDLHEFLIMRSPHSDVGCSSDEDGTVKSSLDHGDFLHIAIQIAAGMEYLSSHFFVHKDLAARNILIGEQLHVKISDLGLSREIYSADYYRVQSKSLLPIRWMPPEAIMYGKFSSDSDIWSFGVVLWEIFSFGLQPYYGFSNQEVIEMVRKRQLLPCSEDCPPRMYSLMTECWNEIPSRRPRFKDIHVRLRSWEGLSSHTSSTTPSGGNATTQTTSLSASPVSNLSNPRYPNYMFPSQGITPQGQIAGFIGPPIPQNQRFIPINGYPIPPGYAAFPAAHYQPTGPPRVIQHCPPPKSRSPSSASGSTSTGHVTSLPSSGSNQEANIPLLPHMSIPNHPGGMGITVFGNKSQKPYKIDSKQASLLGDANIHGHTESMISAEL
T7 sequence (Q01973 30-406): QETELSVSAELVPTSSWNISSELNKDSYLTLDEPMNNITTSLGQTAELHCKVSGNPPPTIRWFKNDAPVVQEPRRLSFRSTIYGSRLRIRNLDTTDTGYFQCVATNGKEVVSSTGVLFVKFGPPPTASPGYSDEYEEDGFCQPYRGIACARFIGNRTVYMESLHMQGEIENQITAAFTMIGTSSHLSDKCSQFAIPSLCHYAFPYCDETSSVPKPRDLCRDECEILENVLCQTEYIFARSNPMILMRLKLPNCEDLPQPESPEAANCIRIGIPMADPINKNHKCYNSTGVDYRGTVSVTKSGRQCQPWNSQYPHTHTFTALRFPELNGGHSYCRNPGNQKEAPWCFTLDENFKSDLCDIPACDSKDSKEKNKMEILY
T8 sequence (Q9Z139 30-406): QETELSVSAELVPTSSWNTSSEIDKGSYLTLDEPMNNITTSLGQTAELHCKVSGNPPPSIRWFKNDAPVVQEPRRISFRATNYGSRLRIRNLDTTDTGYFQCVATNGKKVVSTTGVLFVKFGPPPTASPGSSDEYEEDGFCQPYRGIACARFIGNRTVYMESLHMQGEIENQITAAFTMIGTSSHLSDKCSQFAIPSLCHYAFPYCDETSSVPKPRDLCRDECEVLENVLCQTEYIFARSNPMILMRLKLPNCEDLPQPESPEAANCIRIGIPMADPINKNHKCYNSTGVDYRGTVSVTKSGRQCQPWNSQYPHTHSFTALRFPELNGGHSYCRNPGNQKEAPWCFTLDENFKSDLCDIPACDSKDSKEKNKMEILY
T9 sequence (Q01974 34-403): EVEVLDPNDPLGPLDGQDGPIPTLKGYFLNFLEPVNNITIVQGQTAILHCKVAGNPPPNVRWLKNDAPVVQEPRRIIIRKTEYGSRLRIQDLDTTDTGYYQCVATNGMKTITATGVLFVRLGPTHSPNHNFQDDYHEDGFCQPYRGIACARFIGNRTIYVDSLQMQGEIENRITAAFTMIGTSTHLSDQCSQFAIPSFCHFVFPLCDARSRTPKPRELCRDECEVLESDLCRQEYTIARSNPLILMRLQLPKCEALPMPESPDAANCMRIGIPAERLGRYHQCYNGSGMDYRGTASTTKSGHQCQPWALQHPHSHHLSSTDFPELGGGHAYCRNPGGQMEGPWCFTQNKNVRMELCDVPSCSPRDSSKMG
T3 sequence (Q01973 165-391 limits assumed): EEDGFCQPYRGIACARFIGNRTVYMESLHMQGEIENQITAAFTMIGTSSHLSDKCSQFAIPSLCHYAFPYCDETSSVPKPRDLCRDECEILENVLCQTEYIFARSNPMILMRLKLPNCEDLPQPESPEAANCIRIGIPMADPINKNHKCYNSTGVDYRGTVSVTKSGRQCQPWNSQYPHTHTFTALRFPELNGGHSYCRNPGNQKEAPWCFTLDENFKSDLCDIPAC
T4 sequence (Q01973 42-147 limits assumed): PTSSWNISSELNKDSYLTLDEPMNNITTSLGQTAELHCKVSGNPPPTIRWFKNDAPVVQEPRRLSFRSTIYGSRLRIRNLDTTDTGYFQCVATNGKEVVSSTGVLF
T5 sequence (Q01973 312-391 limits assumed): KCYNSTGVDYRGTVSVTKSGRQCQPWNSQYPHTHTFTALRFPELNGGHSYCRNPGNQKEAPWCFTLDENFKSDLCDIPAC
T6 sequence (chain, as listed by the source limits assumed): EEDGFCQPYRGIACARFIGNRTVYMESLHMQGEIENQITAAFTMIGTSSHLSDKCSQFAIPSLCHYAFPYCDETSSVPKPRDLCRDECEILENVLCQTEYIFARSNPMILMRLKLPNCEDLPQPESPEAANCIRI

- binding result (hROR2 [1]): no binding (tested: 100 ng/100 µL)
B1: ERR1-TOP54 (antibody, IgG1, V domains shown)
VH: QSLEESGGRLVTPGTPLTLTCTASGFSLSDYYMSWVRQAPGEGLEWIGTIYGGSGNTWYATWAKGRFTISKTSTTVDLKITSPTTEDTATYFCARDFGLSTGGLWGPGTLVTISS
VL: SYELTQLPSVSVSLGQTARITCGGNSIGSKAVNWYQQKPGLAPGLLIYDDDERPSGVPDRFSGSNSGDTATLTISGAQAGDEADYYCQLWDSSARAFVFGGGTQLTVTG
notes: also called ERR1-TOP54 chimeric rabbit/human IgG1

- binding result (hROR2 [1]): no binding (tested: 100 ng/100 µL)
B2: ERR1-TOP43 chimeric rabbit/human IgG1 (antibody, V domains shown)
VH: QSLEESGGRLVTPGTPLTLTCTVSGFSLSSYWMSWVRQAPGKGLEWIGAIYGSGNTYYASWAKGRFTISKTSTTVDLKITSPTTEDTATYFCARDVHSTATDLWGPGTLVTISS
VL: SYELTQLPSVSVSLGQTARITCGGNNIGSKAVNWYQQKPGLAPGLLIYNDDERPSGVPDRFSGSNSGDTATLTISGAQAGDEADYYCQLWDSSAGAYVFGGGTQLTVTG
notes: Rabbit variable domains on human IgG1 constant regions (pCEP4), lambda light chain, from HEK 293F cells

More lines, now with the values behind:

B3: XBR1-402-G5-PNU antibody drug conjugate (other)
VH: QEQQKESGGGLFKPTDTLTLTCTASGFDISSYYMSWVRQAPGNGLEWIGAIGISGNAYYASWAKSRSTITRNTNLNTVTLKMTSLTAADTATYFCARDHPTYGMDLWGPGTLVTVSS
VL: SYELTQLPSVSVSLGQTARITCEGNNIGSKAVHWYQQKPGLAPGLLIYDDDERPSGVPDRFSGSNSGDTATLTISGAQAGDEADYYCQVWDSSAYVFGGGTQLTVTG
modifications: Gly5-EDA-PNU joined by sortase to the LPET of the C-terminal G5SLPETG tag of the full light chain; Gly5-EDA-PNU (PNU-159682 derivative) joined by sortase to the LPET of the C-terminal LPETG tag of the full heavy chain
- IC50 of in vitro cell killing, 697 cells [2]: 0.0176 µg/mL
- IC50 of in vitro cell killing, hROR1-overexpressing EMT-6 [3]: 0.0011 µg/mL
- IC50 (cell killing of 697 cells, luminescence) [4]: 0.0757 µg/mL
- IC50 of in vitro cell killing, HS 578T cells (hROR1 status positive) [5]: 1.4 µg/mL
- IC50 (cell killing of Kasumi-2 cells, luminescence) [6]: 0.0012 µg/mL
- IC50 of in vitro cell killing, hROR1-overexpressing EMT-6 (clone 14) [7]: 0.015 µg/mL
- IC50 values on 697 cells (in vitro cell killing) [8]: 0.212 µg/mL

B4: ERR1-TOP22 chimeric rabbit/human Fab (Fab, V domains shown)
VH: QSLEESGGRLVTPGTPLTLTCTVSGFSLSSYYMSWVRQAPGKGLEWIGTISSSGSTYYASWVKGRFTISKTSTTVDLKMTSLTTEDTATYFCARDLDYDMDLWGPGTLVTVSS
VL: SYELTQLPSVSVSLGQTARITCGGNSIGSKAVHWYQQKPGLAPGLLIYNDDERPSGVPDRFSGSNSGDTATLTISGAQAGDEADYYCQLWDNNAAVFGGGTQLTVTG
notes: Chimeric rabbit/human Fab with His tag, expressed in E. coli (pET11a); lambda light chain
- binding result (Fr + Ki): no binding
- binding result (Ig): no binding
- binding result (Kr): no binding
- binding result (Fr): no binding
- Kd [9]: 110 nM
- koff [9]: 0.0813 s⁻¹
- kon [9]: 737000 M⁻¹ s⁻¹
- binding result [10]: binds
- binding result (hROR2 [11]): no binding (tested: 1000 ng/100 µL)
- binding result [12]: no binding (tested: 100 ng/50 µL)

B5: 2A2 (mAb066) IgG (antibody)
heavy: not shown
light: DIVMTQSQKIMSTTVGDRVSITCKASQNVDAAVAWYQQKPGQSPKLLIYSASNRYTGVPDRFTGSGSGTDFTLTISNMQSEDLADYFCQQYDIYPYTFGGGTKLEIKRTVAAPSVFIFPPSDEQLKSGTASVVCLLNNFYPREAKVQWKVDNALQSGNSQESVTEQDSKDSTYSLSSTLTLSKADYEKHKVYACEVTHQGLSSPVTKSFNRGECGGGGSLPETGGWSHPQFEK
notes: Known anti-ROR1 antibody (WO 2010/124188), murine-human chimeric IgG1; tags HC: LPETG-Strep, LC: G5SLPETG-Strep; they may be variable domains only
- binding result [13]: binds

From US20220153839A1 (NBE THERAPEUTICS, published 2022)
